Source: the supplement of paper PMC10065799, “High-throughput profiling of sequence recognition by tyrosine kinases and SH2 domains using bacterial peptide display” (eLife, 2023)

target: FGFR1 (UniProt P11362); test: phosphorylation enrichment, bacterial display (enrichment ratio); higher = better substrate or ligand; peptides without Tyr show the background
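Note: 11-residue human phosphosite peptides and single-mutation variants displayed on the E. coli surface, counted by deep sequencing, each peptide's frequency after selection divided by its frequency in the unselected input library; frequency after pTyr selection over input frequency; kinase dosed for 20-30% of maximal phosphorylation in three min.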

Chain of FGFR1 (P11362 whole entry, looked up): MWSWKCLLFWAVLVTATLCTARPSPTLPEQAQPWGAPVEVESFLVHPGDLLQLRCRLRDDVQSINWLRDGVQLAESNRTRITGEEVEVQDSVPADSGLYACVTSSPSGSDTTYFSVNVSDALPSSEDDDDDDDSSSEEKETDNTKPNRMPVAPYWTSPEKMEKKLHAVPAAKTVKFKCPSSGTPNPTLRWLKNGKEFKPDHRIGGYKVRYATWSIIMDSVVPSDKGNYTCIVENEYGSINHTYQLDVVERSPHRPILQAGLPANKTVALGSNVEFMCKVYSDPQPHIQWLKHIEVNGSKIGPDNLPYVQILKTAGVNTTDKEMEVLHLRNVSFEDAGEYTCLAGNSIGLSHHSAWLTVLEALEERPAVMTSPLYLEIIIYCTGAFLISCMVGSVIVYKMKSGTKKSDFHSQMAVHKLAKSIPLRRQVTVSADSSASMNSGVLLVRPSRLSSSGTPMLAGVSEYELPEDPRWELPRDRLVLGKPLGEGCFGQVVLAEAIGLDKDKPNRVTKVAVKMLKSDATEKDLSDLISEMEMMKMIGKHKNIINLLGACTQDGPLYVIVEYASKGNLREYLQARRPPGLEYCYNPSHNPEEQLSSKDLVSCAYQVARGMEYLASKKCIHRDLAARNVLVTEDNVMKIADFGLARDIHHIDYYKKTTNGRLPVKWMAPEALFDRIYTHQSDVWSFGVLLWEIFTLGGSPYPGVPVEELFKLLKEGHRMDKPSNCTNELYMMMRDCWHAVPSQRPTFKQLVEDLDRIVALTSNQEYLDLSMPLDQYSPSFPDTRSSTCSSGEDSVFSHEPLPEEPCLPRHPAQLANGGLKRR

Row | Sequence | phosphorylation enrichment
1 | EQKKNYNAMKK [SCN5A_Y1495_Y1494N] | 0.643
2 | FDGKDYIALNE [HLA-A_Y147_YF] | 0.601
3 | QEIATYPRLLE [KRT14_Y415_R416P] | 0.77
4 | ANAFIYDVQLP [L1CAM_Y420_V421D_YF] | 0.639
5 | GRQWNYVASMS [KLHL4_Y552] | 0.434
6 | TKVVHYWKWIK [KLK2_Y249_R250W] | 0.489
7 | KLADIYQAELR [GFAP_Y116_V115I] | 0.419
8 | TAALWYIFLHT [ENG_Y612_S615L_YF] | 0.845
9 | LYRYGYANTSE [SI_Y1233_C1229Y] | 0.46
10 | DEGVNHFMSKG [FBXO8_Y156_Y156H] | 0.436
11 | LSQAKYQIRFR [CRLF1_Y272_F268S_YF] | 0.558
12 | PEEKVYLSRGD [CRACR2A_Y141_H136P] | 0.706
13 | NKVKFYIPYMN [NCR1_Y84_D87Y] | 0.483
14 | GEFHVYRHLRR [PRKRIP1_Y82] | 0.57
15 | INNIDYFKKTT [FGFR2_Y656_YF] | 0.567
16 | NLGQQYNSPQE [UMPS_Y432] | 0.614
17 | FVSIVYNDSGE [TSC2_Y1650] | 0.559
18 | PSAELYSNALP [PDGFRB_Y716] | 1.79
19 | DRLAVCIDRVR [LMNA_Y45_Y45C] | 0.467
20 | EDEGLYTVRVP [MYOM3_Y343_M344T] | 0.633
21 | LDTIQYSKHPP [SQSTM1_Y433] | 0.6
22 | SIRYNYLLDVL [FGFR4_Y237] | 0.479

target: MERTK (UniProt Q12866); test: as above
Sequence (Q12866 whole entry, looked up): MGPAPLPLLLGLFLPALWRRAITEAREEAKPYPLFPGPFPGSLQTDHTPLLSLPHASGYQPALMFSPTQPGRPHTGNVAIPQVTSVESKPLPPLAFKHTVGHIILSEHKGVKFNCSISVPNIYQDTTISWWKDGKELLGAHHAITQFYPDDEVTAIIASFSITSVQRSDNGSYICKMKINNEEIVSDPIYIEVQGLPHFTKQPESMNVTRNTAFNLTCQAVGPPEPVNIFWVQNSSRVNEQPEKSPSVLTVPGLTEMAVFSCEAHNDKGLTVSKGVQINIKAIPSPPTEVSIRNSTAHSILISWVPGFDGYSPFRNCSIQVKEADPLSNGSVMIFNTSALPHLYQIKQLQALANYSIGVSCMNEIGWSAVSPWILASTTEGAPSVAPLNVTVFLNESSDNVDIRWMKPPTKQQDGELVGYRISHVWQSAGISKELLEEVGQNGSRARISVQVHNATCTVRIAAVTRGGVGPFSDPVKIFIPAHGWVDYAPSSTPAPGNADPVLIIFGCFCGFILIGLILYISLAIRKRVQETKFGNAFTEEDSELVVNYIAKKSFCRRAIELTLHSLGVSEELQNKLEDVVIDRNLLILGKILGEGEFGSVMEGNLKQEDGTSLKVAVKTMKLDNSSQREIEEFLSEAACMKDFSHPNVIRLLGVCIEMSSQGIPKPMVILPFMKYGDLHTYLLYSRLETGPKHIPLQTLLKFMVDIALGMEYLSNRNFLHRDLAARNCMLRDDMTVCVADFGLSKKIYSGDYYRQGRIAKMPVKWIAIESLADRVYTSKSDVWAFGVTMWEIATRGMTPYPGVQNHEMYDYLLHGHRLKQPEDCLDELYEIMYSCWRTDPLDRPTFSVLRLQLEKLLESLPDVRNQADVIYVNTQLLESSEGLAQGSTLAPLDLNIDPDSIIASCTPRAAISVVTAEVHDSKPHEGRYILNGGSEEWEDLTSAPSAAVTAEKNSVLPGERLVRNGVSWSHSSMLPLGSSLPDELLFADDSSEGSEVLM

Row | Sequence | phosphorylation enrichment
23 | EQKKNYNAMKK [SCN5A_Y1495_Y1494N] | 0.44
24 | FDGKDYIALNE [HLA-A_Y147_YF] | 0.382
25 | QEIATYPRLLE [KRT14_Y415_R416P] | 0.515
26 | ANAFIYDVQLP [L1CAM_Y420_V421D_YF] | 7.43
27 | GRQWNYVASMS [KLHL4_Y552] | 0.395
28 | TKVVHYWKWIK [KLK2_Y249_R250W] | 0.51
29 | KLADIYQAELR [GFAP_Y116_V115I] | 0.709
30 | TAALWYIFLHT [ENG_Y612_S615L_YF] | 0.555
31 | LYRYGYANTSE [SI_Y1233_C1229Y] | 0.36
32 | DEGVNHFMSKG [FBXO8_Y156_Y156H] | 0.324
33 | LSQAKYQIRFR [CRLF1_Y272_F268S_YF] | 0.499
34 | PEEKVYLSRGD [CRACR2A_Y141_H136P] | 0.735
35 | NKVKFYIPYMN [NCR1_Y84_D87Y] | 0.473
36 | GEFHVYRHLRR [PRKRIP1_Y82] | 0.494
37 | INNIDYFKKTT [FGFR2_Y656_YF] | 0.37
38 | NLGQQYNSPQE [UMPS_Y432] | 0.413
39 | FVSIVYNDSGE [TSC2_Y1650] | 0.571
40 | PSAELYSNALP [PDGFRB_Y716] | 7.96
41 | DRLAVCIDRVR [LMNA_Y45_Y45C] | 0.394
42 | EDEGLYTVRVP [MYOM3_Y343_M344T] | 1.84
43 | LDTIQYSKHPP [SQSTM1_Y433] | 0.792
44 | SIRYNYLLDVL [FGFR4_Y237] | 0.509

target: Jak2 (UniProt O60674); test: as above
Sequence (O60674 whole entry, looked up): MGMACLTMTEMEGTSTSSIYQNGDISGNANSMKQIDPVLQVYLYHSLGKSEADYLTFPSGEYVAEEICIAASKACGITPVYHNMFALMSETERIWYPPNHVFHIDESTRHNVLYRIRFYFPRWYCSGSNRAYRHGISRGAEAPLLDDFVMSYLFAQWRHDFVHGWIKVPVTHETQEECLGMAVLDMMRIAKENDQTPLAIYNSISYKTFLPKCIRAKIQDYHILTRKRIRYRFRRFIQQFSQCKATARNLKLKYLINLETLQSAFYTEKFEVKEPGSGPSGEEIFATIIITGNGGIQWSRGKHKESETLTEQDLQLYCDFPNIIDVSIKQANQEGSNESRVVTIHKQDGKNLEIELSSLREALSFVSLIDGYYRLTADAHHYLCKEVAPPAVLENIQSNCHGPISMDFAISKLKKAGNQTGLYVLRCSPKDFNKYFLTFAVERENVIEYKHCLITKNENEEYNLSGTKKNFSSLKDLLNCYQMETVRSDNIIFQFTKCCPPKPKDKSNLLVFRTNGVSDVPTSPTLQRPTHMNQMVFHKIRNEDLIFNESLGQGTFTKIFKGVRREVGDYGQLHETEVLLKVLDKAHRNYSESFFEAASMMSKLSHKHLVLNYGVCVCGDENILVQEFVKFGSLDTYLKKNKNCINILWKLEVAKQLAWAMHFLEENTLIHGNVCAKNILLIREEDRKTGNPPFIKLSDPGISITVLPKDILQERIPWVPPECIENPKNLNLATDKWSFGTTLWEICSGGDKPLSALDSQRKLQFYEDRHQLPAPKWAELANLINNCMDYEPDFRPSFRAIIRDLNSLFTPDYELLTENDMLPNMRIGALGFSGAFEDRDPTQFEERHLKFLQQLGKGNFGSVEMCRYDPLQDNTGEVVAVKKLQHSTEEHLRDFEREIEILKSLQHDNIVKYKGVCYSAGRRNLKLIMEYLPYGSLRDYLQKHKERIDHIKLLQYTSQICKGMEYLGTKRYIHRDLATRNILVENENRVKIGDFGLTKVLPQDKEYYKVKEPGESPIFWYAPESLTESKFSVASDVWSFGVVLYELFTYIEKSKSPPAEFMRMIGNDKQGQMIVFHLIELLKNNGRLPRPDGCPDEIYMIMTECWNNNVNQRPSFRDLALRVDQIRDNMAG

Row | Sequence | phosphorylation enrichment
45 | EQKKNYNAMKK [SCN5A_Y1495_Y1494N] | 1.01
46 | FDGKDYIALNE [HLA-A_Y147_YF] | 0.898
47 | QEIATYPRLLE [KRT14_Y415_R416P] | 1.43
48 | ANAFIYDVQLP [L1CAM_Y420_V421D_YF] | 0.849
49 | GRQWNYVASMS [KLHL4_Y552] | 0.618
50 | TKVVHYWKWIK [KLK2_Y249_R250W] | 0.802
51 | KLADIYQAELR [GFAP_Y116_V115I] | 0.813
52 | TAALWYIFLHT [ENG_Y612_S615L_YF] | 1.48
53 | LYRYGYANTSE [SI_Y1233_C1229Y] | 0.6
54 | DEGVNHFMSKG [FBXO8_Y156_Y156H] | 0.42
55 | LSQAKYQIRFR [CRLF1_Y272_F268S_YF] | 0.63
56 | PEEKVYLSRGD [CRACR2A_Y141_H136P] | 1.22
57 | NKVKFYIPYMN [NCR1_Y84_D87Y] | 0.893
58 | GEFHVYRHLRR [PRKRIP1_Y82] | 0.896
59 | INNIDYFKKTT [FGFR2_Y656_YF] | 0.605
60 | NLGQQYNSPQE [UMPS_Y432] | 0.78
61 | FVSIVYNDSGE [TSC2_Y1650] | 0.942
62 | PSAELYSNALP [PDGFRB_Y716] | 0.849
63 | DRLAVCIDRVR [LMNA_Y45_Y45C] | 0.904
64 | EDEGLYTVRVP [MYOM3_Y343_M344T] | 1.04
65 | LDTIQYSKHPP [SQSTM1_Y433] | 1.07
66 | SIRYNYLLDVL [FGFR4_Y237] | 0.674

target: EPHB1 (UniProt P54762); test: as above
Sequence (P54762 whole entry, looked up): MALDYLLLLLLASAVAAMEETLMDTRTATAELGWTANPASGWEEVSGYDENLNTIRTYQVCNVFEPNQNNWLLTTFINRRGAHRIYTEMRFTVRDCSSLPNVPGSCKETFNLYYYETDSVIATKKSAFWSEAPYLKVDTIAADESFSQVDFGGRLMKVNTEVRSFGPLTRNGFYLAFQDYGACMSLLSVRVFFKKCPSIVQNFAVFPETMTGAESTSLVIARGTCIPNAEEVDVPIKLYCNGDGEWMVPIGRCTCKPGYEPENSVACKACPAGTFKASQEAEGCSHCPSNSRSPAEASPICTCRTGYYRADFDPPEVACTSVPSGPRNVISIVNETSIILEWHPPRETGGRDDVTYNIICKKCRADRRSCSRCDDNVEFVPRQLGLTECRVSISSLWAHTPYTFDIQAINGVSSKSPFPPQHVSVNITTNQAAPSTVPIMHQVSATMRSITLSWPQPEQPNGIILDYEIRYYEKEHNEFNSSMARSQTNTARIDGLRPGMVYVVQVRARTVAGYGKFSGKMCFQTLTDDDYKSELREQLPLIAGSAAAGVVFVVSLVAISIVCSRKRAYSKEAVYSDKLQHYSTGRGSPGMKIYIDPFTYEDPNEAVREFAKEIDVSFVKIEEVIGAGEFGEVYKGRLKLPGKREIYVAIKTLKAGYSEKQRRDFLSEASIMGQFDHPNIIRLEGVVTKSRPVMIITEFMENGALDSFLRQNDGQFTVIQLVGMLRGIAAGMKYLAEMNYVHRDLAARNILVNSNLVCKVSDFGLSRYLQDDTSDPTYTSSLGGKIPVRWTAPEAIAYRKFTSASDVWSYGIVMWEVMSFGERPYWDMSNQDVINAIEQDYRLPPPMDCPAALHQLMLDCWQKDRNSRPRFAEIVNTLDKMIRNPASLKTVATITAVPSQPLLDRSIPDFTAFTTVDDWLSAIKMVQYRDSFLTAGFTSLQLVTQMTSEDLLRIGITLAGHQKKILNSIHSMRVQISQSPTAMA

Row | Sequence | phosphorylation enrichment
67 | EQKKNYNAMKK [SCN5A_Y1495_Y1494N] | 0.427
68 | FDGKDYIALNE [HLA-A_Y147_YF] | 0.628
69 | QEIATYPRLLE [KRT14_Y415_R416P] | 0.581
70 | ANAFIYDVQLP [L1CAM_Y420_V421D_YF] | 1.69
71 | GRQWNYVASMS [KLHL4_Y552] | 0.508
72 | TKVVHYWKWIK [KLK2_Y249_R250W] | 0.494
73 | KLADIYQAELR [GFAP_Y116_V115I] | 0.59
74 | TAALWYIFLHT [ENG_Y612_S615L_YF] | 0.832
75 | LYRYGYANTSE [SI_Y1233_C1229Y] | 0.437
76 | DEGVNHFMSKG [FBXO8_Y156_Y156H] | 0.433
77 | LSQAKYQIRFR [CRLF1_Y272_F268S_YF] | 0.682
78 | PEEKVYLSRGD [CRACR2A_Y141_H136P] | 1.06
79 | NKVKFYIPYMN [NCR1_Y84_D87Y] | 0.599
80 | GEFHVYRHLRR [PRKRIP1_Y82] | 0.43
81 | INNIDYFKKTT [FGFR2_Y656_YF] | 0.46
82 | NLGQQYNSPQE [UMPS_Y432] | 0.563
83 | FVSIVYNDSGE [TSC2_Y1650] | 0.509
84 | PSAELYSNALP [PDGFRB_Y716] | 2.63
85 | DRLAVCIDRVR [LMNA_Y45_Y45C] | 0.605
86 | EDEGLYTVRVP [MYOM3_Y343_M344T] | 0.766
87 | LDTIQYSKHPP [SQSTM1_Y433] | 0.778
88 | SIRYNYLLDVL [FGFR4_Y237] | 0.394
